Results reported in the supplement of paper PMC9170038.

System: K4 kissing-loop RNA reporter
Experiment: apparent KD of K4 kissing-loop reporter; higher = weaker reporter binding
Conditions: Eterna round: R107
Description: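 RNA-MaP round R107: designed RNA switches with theophylline, tryptophan, arginine or FMN aptamers are transcribed on-chip within common flanks. They are titrated with a labelled K4 kissing-loop RNA reporter in RNA-MaP buffer (100 mM Tris pH 7.5, 80 mM KCl, 4 mM MgCl2), without ligand or with the indicated ligand. Median apparent KD per design.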

[1] = input ligand: theophylline 20 uM
[2] = input ligand: tryptophan 2.4 mM
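Also: bound reporter read as fluorescence of individual clusters on recovered sequencing chips by microscopy, with normalized cluster intensities fitted with a binding model.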

| Sequence | apparent KD of K4 kissing-loop reporter (input ligand: FMN 200 uM) [nM] | apparent KD of K4 kissing-loop reporter (input ligand: arginine 13.2 mM) [nM] | apparent KD of K4 kissing-loop reporter (input ligand: none) [nM] | apparent KD of K4 kissing-loop reporter [1] [nM] | apparent KD of K4 kissing-loop reporter [2] [nM] |
| --- | --- | --- | --- | --- | --- |
| AUUAGGCGAAGUGAUGUUUCAUAUAAUGGCAAGGAUAUGUCCUUACACAGAAGGUGCUCUUAGUCAGGUUAUAUUAGGACUGCUA [theeternabot_exclusion_KL_FMN_A_42] | 446 | 434 | 460 | 474 | 340 |
| AUUAUAAAGGCGGCCGCCACUAGUGAUGUUAGUGACUUAUGUAUUAUCAUAAGAAUAAAAUAAAAUAGGACCGGGCCAAAAUAUU [AstrosExTryB#3] | 527 | 384 | 452 | 448 | 483 |
| AUUCAUGAGUGAUGUUCAUCGGCAGGAGAUACCAGCGAGUUAACCCGCCCUUGGCAGCUCAAGUAUAGGGACUCUGGCAUCGCCU [theeternabot_exclusion_KL_Theo_A_18] | 406 | 374 | 547 | 405 | 369 |
| AUUCAUUUCAGAGGAUAUCGCUGGAGAGUGAUGUUCUCCCAUAGUCAGUGAUGUUGGCUAGCUAUGCGAGAAGGCUGUGGGUGGA [Same State FMN B GF 28] | 143 | 396 | 397 | 356 | 384 |
| AUUCGAUCAGUGAUGUUGAUCAAAGUCGAAGGAGCGGACGAAAGUCCAGGUAGGUCGCGACUACAAGGUGUUAAGACACCUCGAA [Spvincent t9 mod #OpenEnded] | 246 | 211 | 237 | 208 | 224 |
| AUUCUAUUGUGAAGGAGCGCGUAUAGUAGUGAUGUUACUAUAAUGAUAGAUACUUAAUUCUCGCAGGUAGGUCGCACAAUAUAUA [JR_Nu_ExcArginiB_Sub024] | 117 | 77.5 | 98.8 | 85 | 89.8 |
| AUUUAGACGAGUGAUGUUCGUGUUAUUACAGAGGAUAUGCGUGAUUGCAGAAGGCUGUAUUUAUAUAUGUUAUGUGGUUUUAAAA [whbob_Ex_FMNA__2th186] | 79.7 | 102 | 90.7 | 102 | 69.9 |
| CAGUUCUAUUCCGGUAGUGAUGUUACCAAGCGAGGACCGGUACGGCCGCCACUCGAGUGACAGACGUACUGGUAUCACCCGCUUC | 159 | 172 | 164 | 186 | 142 |
| CAUACGCAUGGAGGAUAUGAGAUUACUCAUAUCAUUUAAUAUUCUCAGUGAUGUUGAGAUUUAAACUCAGAAGGCCAUGUGUAUG [Ex FMN B 12] | 262 | 331 | 358 | 356 | 380 |
| CAUACGCAUGGAGGAUAUGGGAUUACUCAUAUUACCCUGUAACAGGUAUCUCAGUGAUGUUGAGACUCAGAAGGCCAUGUGUAUG [Ex FMN B 23] | 615 | 289 | 348 | 370 | 344 |
| CAUAGACAAGUGAUGUUUGUCAUAACCGAAGGAGCGUCUUUAAAGACAGGUAGGUCGCGGAUUAGUUAAGUUAUGAUUCUUUAUG [#19 K4 Arginine A Same State] | 602 | 492 | 704 | 659 | 453 |
| CAUAGGAAACUAUGUUUCUCUCUUACUGAAGGAGCGCGUGAAAACGCAGGUAGGUCGCAGAAUUUAAAAGAGAGUGAUGUUCUCA [Ex Arginine A K4 11] | 431 | 374 | 598 | 572 | 446 |
| CAUAUCAGAUAAGGAUAUAUGGCUCCUCGAGUCCAGUGAUGUUGGGCAACGUUUCAGUGGUGGAUUAUAGAAGGUAUUCACAGAC [theeternabot_sameState_KL_FMN_B_9] | 297 | 250 | 276 | 272 | 258 |
| CAUGGAGUGAUGCUCCAUGAUCGGGCUUGGCAGGAUAUGGGAUCUUCCAGAAGGGCCGAUCCCAGCGAGUGAUGUUCGCUGGUCU [Exclusion FMN A GF 27] | 119 | 107 | 113 | 116 | 108 |
| CCAUCGCUAUUCGAUACCAGUCAUCACAUCUUUGGUGUGAUAAAGGAGUGAUGUUCCCAAGACCCUUGGCAGCGAAUAGUGAUGG [Theophylline B K4 11] | 293 | 222 | 270 | 172 | 250 |
| CCAUCGCUAUUCGAUACCAGUCUUUUUUAUUUAUAAAAUCUGCAAAGGAGUGAUGUUCCAGACCCUUGGCAGCGAAUAGUGAUGG [Theophylline B K4 3] | 401 | 441 | 464 | 570 | 459 |
| CCAUUCUUUUACGAUACCAGUUUAAUAUAUUUAUUCAUAACCCUUGCCGAGUGAUGUUCGGACCCUUGGCAGCGUUUGCGAGAGG [lliltkmullin] | 303 | 308 | 392 | 404 | 239 |
| CCCGGGUCGUCAGGAUAUGAGUGCAGUGAUGUUGCACGGGUCUUUGCAGGCCCUGGUGAGGCGUACUCAGAAGGGACGCCAGGUC [Atazazaed] | 250 | 124 | 145 | 130 | 133 |
| CCCGUGGGUUCGAGAGGGCUUGUGGGAAGUAAGGAUAUUUAGGGAGAAAGAAGGUACUAUAGAAUAUAGUGAUGUUAUAUAUGGG [#07 K4 FMN A Same State] | 402 | 435 | 454 | 347 | 203 |
| CCCUCACGAGUGAUGUUCGUAGGGUACAGUCAGGAUAUCAUGCGGUUGAGAAGGGACAGAGAGGGCGGCGGCGGGUUGCUCAUCG [Rabele] | 150 | 125 | 153 | 166 | 124 |
| CCGAAGAACCAGUGAUGUUGGUUGACUAGACAGGAUAUGAGCAACAUCAGAAGGGUCUGGCUUCGGGAGUGGGCCGCGCUGACCU [Artilati] | 324 | 193 | 240 | 1210 | 395 |

| Sequence | apparent KD of K4 kissing-loop reporter (input ligand: FMN 200 uM) [nM] | apparent KD of K4 kissing-loop reporter (input ligand: arginine 13.2 mM) [nM] | apparent KD of K4 kissing-loop reporter (input ligand: none) [nM] | apparent KD of K4 kissing-loop reporter [1] [nM] | apparent KD of K4 kissing-loop reporter [2] [nM] |
| --- | --- | --- | --- | --- | --- |
| CCGAUGGGUACAGGAUAUGCCAGUGAUGUUGGUUUAGAUGGACCCAUAAGGAGACACCAGACGGAGGCAGAAGGGUAGCAAGGGA [Isonanti] | 127 | 110 | 101 | 118 | 120 |
| CCGGGCGGCUGAAGGAGCGGGCGGGCCCGAGUGAUGUUCGGGUGGGCCGUGAGGUCCGGUGCCCAGGUAGGUCGCGGUUCCGCCC [#2 Same State - Arginine B Attempt #10 (HarryS)] | 200 | 169 | 262 | 215 | 164 |
| CCGUAGCGAUCGGCCGCCACUCAAGAUCGCCAACUAUCACACGGUUCUCCCGAGUGAUGUUCUAGGAGGACCGGGAUUGUUGCUC [theeternabot_exclusion_KL_Trp_B_13] | 421 | 322 | 378 | 374 | 388 |
| CCUAUCUCAUACGAUACCAGUCUACGAUAUUUUAUCGUUGCCAACACCGAGUGAUGUUCGGACCCUUGGCAGCGUAUGGGAUAGG [#03 K4 Theophylline B Exclusion] | 159 | 129 | 143 | 138 | 136 |
| CCUAUCUCAUACGAUACCAGUCUAUUGUUACGAGUGAUGUUCGAAUAUUUGCCAUUCAAUGACCCUUGGCAGCGUAUGGGAUAGG [Ex Theophylline B K4 10] | 502 | 519 | 525 | 548 | 486 |
| CCUCACGUAGGACUAGUGAUGUUAGACUACCGAGGACCGGUACGGCCGCCACUCGUCGUACAAGAUAACCUUCCGCCAGUAUACG | 110 | 85.1 | 98.9 | 88.4 | 140 |
| CGAGUGAUGUUCGUUUUUUACUCUGUUUGACAGGAUAUGCGGAAACGCAGAAGGGUCACCUUUGAGUUAAACGGAGUUAUUUUUU [Ex FMN A 20] | 419 | 296 | 366 | 306 | 320 |
| CGAUACGGAAAUACGUGUCUCUAUUCAGAAGGAGCGUGGUAGUACACAGGUAGGUCGCUGAAAUUUAAACUAGUGAUGUUAGACU [JR_SSArginiA_Sub004] | 1330 | 742 | 1190 | 884 | 905 |
| CGCAAGCAGCUAGUGAUGUUGGCCGCCUUGCGAGGACCGGUACGGCCGCCACUCGGAGGCGGCUACUGAUAAACCGUCUAACGGA [KL-XTryp-A10] | 87.5 | 67.2 | 84.3 | 70.6 | 224 |
| CGCAGUGAUGUUGCGAGUAGCUACAGGGAAGGAGCGUGCUAGAGCACAGGUAGGUCGCCCAGUGGCAGUGAUGUUGCCAAAGGGU [Exclusion ARginine A GF 17] | 126 | 119 | 118 | 126 | 116 |
| CGCCGCAAGGCGAGCGCUCCCACUCCGGAAGGAGCGCCCGAAAGGGCAGGUAGGUCGCCGGAGUGAUGUUCCGGUGGAGGGCUCG [#2 Exclusion - Arginine A Attempt #27 (Inspired by Omei)] | 379 | 185 | 432 | 360 | 529 |
| CGCCGGAAGGCGAGCGCUCCCACUCCGGAAGGAGCGCCCGAAAGGGCAGGUAGGUCGCCGGAGUGAUGUUCCGGUGGAGGGCUCG [#2 Exclusion - Arginine A Attempt #29 (Inspired by Omei)] | 125 | 119 | 121 | 371 | 187 |
| CGCGCGCGUUGAGAGGUGCGCGCGAAUGAUACCAGUAUAUAAGAAUACCCUUGGCAGCAUAAGAAAGAUAUAGUGAUGUUGUAUA [SSTheophA.F] | 346 | 130 | 250 | 308 | 228 |
| CGGAUGUAGUGAUGUUAUAUUAGAUGUAGACGAGGACCGGUACGGCCGCCACUCGAAACGGCUACUAGCGCGUUGCGAGGUGUGC [ExTryptoA.CJ] | 737 | 525 | 686 | 784 | 480 |
| CGUAAGGAUUGACGACUGCAGAGCAAAAUAAAGGAUAUCGCAGCGUCGAGAAGGUUAUCGUGCGCCAGUGAUGUUGGCGGUAGUC [theeternabot_sameState_KL_FMN_A_22] | 84.1 | 135 | 108 | 181 | 87 |
| CGUACGGUUUCUUUCUUUCCGUACGCGUGCCGAGGACCGGUACGGCCGCCACUCGCUACAGCCUAGUGAUGUUAGGCAAUUCUUU | 107 | 111 | 112 | 124 | 89.9 |
| CGUCACAAACCUAGUCAAGUGAUGUUUGGCCGAGGACCGGUACGGCCGCCACUCGCUCCUGUCACCCAUUCGUGUGUCGCGGACU [theeternabot_exclusion_KL_Trp_A_5] | 377 | 148 | 316 | 473 | 297 |
| CGUUUAUAGCAGGAUACCAGUACCCAUAAAGUACGUUAAUAGUAGAGUGAUGUUCUGAAGUACCCUUGGCAGCUUCCGGUAAGUG [#25 K4 Theophylline B Exclusion] | 163 | 342 | 239 | 298 | 134 |
| CUAACGGUACGAGUGAUGUUCAGCAAGGAUACCAGCGGACAGUCACGCCCUUGGCAGCCUAGUUUCUACCCGUCGGAAUUUCUUA [theeternabot_sameState_KL_Theo_A_2] | 623 | 366 | 599 | 461 | 527 |
| CUAAUCGCUCAUGAUACCAGCUAGUGAUGUUAGCCCGUCAAGCUGAGGGUUCAUCCACCCAGCCCUUGGCAGCAUUCUCGGUCAG [theeternabot_exclusion_KL_Theo_B_8] | 441 | 313 | 387 | 449 | 364 |
| CUAGCUAGCAUGGAAACAUGCUAGCUAGAUUAGGAUAUGACGUAAGUCAGAAGGGAUAAAUGGAGUGAUGUUCCGGACGCAAGUC [#2 Same State - FMN A Attempt #4 (HarryS)] | 255 | 237 | 247 | 295 | 186 |
